# Assay results taken from patent US20110206724A1.
# Experiments:
# Assay in all cases: capture ELISA on E. coli lysate
# [1] = target: 150C-IM2(74) hybrid WHcAg construct (woodchuck hepatitis virus; influenza A virus)
# [2] = target: WT-R-IM2(74) hybrid WHcAg construct (woodchuck hepatitis virus; influenza A virus)
# [3] = target: HyW-IM2(-)78 hybrid WHcAg particle (woodchuck hepatitis virus; influenza A virus)
# [4] = target: HyW-IM2(74) hybrid WHcAg construct (woodchuck hepatitis virus; influenza A virus)
substance,measurement,setting,value
"mAb 14C2, anti-influenza M2e (antibody)",relative binding score (Accessability) (relative score),[1],3
same,relative binding score (Accessability) (relative score),[2],2
same,relative binding score (Accessability) (relative score),[3],3
same,relative binding score (Accessability) (relative score),[4],3
